“And” between values parts separate entries of the source, which are not always exact repeats. Identical values can stand only once. One block for each binder: values may come before it. [ ]: non-standard residue; d: D form. Trp(1-Me) = Cn1cc(C[C@H](N)C(=O)O)c2ccccc21; αMeW = C[C@](N)(Cc1c[nH]c2ccccc12)C(=O)O; Trp(3-Me) = 3-methyltryptophan; αMeL = CC(C)C[C@](C)(N)C(=O)O
Molecular target: T1, β-catenin (UniProt P35222 134-665, limits assumed, biotinylated in the SPR and plate assays)
T1 sequence (looked up): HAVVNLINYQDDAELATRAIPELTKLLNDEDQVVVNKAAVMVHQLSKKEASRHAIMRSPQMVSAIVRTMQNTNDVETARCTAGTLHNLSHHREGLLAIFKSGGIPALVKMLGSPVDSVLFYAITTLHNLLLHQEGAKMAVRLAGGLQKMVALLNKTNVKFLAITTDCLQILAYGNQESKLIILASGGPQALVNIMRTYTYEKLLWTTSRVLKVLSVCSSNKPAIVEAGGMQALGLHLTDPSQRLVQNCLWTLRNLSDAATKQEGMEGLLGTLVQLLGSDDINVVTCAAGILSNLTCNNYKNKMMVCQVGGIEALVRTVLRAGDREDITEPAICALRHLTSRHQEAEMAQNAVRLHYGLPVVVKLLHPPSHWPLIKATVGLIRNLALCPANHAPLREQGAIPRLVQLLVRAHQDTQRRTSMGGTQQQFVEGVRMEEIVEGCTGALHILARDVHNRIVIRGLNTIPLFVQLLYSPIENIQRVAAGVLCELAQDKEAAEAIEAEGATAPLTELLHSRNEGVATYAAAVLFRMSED
Test: cell-based or functional assay

B1: SEQ ID NO: 113 (peptide)
peptide: H-KMWILICFWG-OH
Wnt Reporter EC50: > 30 µM

B3: SEQ ID NO: 114 (peptide)
peptide: H-HMWILICFWG-OH
Wnt Reporter EC50: ≤ 7.5 µM

B6: SEQ ID NO: 124 (peptide)
peptide: H-RMWILISFWG-OH
Wnt Reporter EC50: > 7.5 µM and ≤ 15 µM

B7: SEQ ID NO: 115 (peptide)
peptide: H-RMWILICFWG-OH
Wnt Reporter EC50: > 15 µM and ≤ 22.5 µM

B8: SEQ ID NO: 117 (peptide)
peptide: H-KWILICFWG-OH
Wnt Reporter EC50: > 15 µM and ≤ 22.5 µM

B10: SEQ ID NO: 143 (peptide)
peptide: H-MWFLIQFWG-OH
Wnt Reporter EC50: > 7.5 µM and ≤ 15 µM

B16: SEQ ID NO: 118 (peptide)
peptide: H-HWILICFWG-OH
Wnt Reporter EC50: ≤ 7.5 µM

B19: SEQ ID NO: 141 (peptide)
peptide: VWFLICFWG
HELM: PEPTIDE1{[Nva].W.F.L.I.C.F.W.G}$$$$V2.0
SMILES: CCC[C@H](N)C(=O)N[C@@H](Cc1c[nH]c2ccccc12)C(=O)N[C@@H](Cc1ccccc1)C(=O)N[C@@H](CC(C)C)C(=O)N[C@H](C(=O)N[C@@H](CS)C(=O)N[C@@H](Cc1ccccc1)C(=O)N[C@@H](Cc1c[nH]c2ccccc12)C(=O)NCC(=O)O)[C@@H](C)CC
Wnt Reporter EC50: > 7.5 µM and ≤ 15 µM

B20: SEQ ID NO: 140 (peptide)
peptide: H-MWFLICH[Trp(1-Me)]G-OH
Wnt Reporter EC50: > 15 µM and ≤ 22.5 µM

B21: SEQ ID NO: 119 (peptide)
peptide: H-RWILICFWG-OH
Wnt Reporter EC50: > 7.5 µM and ≤ 15 µM

B22: SEQ ID NO: 120 (peptide)
peptide: KWILICFWD
HELM: PEPTIDE1{K.W.I.L.I.C.F.W.D}$PEPTIDE1,PEPTIDE1,1:R3-9:R3$$$V2.0
SMILES: CC[C@H](C)[C@@H]1NC(=O)[C@H](CC(C)C)NC(=O)[C@H]([C@@H](C)CC)NC(=O)[C@H](Cc2c[nH]c3ccccc23)NC(=O)[C@@H](N)CCCCNC(=O)C[C@@H](C(=O)O)NC(=O)[C@H](Cc2c[nH]c3ccccc23)NC(=O)[C@H](Cc2ccccc2)NC(=O)[C@H](CS)NC1=O
Wnt Reporter EC50: ≤ 7.5 µM

B23: SEQ ID NO: 130 (peptide)
peptide: H-MWI[αMeL]ICFWG-OH
Wnt Reporter EC50: > 22.5 µM and ≤ 30 µM

B25: SEQ ID NO: 134 (peptide)
peptide: H-M[αMeW]ILISFWG-OH
Wnt Reporter EC50: > 30 µM

B28: SEQ ID NO: 135 (peptide)
peptide: H-MWFLICH[Trp(3-Me)]G-OH
Wnt Reporter EC50: > 7.5 µM and ≤ 15 µM

Continued, values first:

Wnt Reporter EC50: > 15 µM and ≤ 22.5 µM
B2: SEQ ID NO: 170 (peptide)
peptide: KMWFLICFWD
HELM: PEPTIDE1{K.M.W.F.L.I.C.F.W.D}$PEPTIDE1,PEPTIDE1,1:R3-10:R3$$$V2.0
SMILES: CC[C@H](C)[C@@H]1NC(=O)[C@H](CC(C)C)NC(=O)[C@H](Cc2ccccc2)NC(=O)[C@H](Cc2c[nH]c3ccccc23)NC(=O)[C@H](CCSC)NC(=O)[C@@H](N)CCCCNC(=O)C[C@@H](C(=O)O)NC(=O)[C@H](Cc2c[nH]c3ccccc23)NC(=O)[C@H](Cc2ccccc2)NC(=O)[C@H](CS)NC1=O

Wnt Reporter EC50: > 7.5 µM and ≤ 15 µM
B4: SEQ ID NO: 167 (peptide)
peptide: KMWFLICAWD
HELM: PEPTIDE1{K.M.W.F.L.I.C.A.W.D}$PEPTIDE1,PEPTIDE1,1:R3-10:R3$$$V2.0
SMILES: CC[C@H](C)[C@@H]1NC(=O)[C@H](CC(C)C)NC(=O)[C@H](Cc2ccccc2)NC(=O)[C@H](Cc2c[nH]c3ccccc23)NC(=O)[C@H](CCSC)NC(=O)[C@@H](N)CCCCNC(=O)C[C@@H](C(=O)O)NC(=O)[C@H](Cc2c[nH]c3ccccc23)NC(=O)[C@H](C)NC(=O)[C@H](CS)NC1=O

Wnt Reporter EC50: ≤ 7.5 µM
B5: SEQ ID NO: 171 (peptide)
peptide: KMWFLISFWD
HELM: PEPTIDE1{K.M.W.F.L.I.S.F.W.D}$PEPTIDE1,PEPTIDE1,1:R3-10:R3$$$V2.0
SMILES: CC[C@H](C)[C@@H]1NC(=O)[C@H](CC(C)C)NC(=O)[C@H](Cc2ccccc2)NC(=O)[C@H](Cc2c[nH]c3ccccc23)NC(=O)[C@H](CCSC)NC(=O)[C@@H](N)CCCCNC(=O)C[C@@H](C(=O)O)NC(=O)[C@H](Cc2c[nH]c3ccccc23)NC(=O)[C@H](Cc2ccccc2)NC(=O)[C@H](CO)NC1=O

Wnt Reporter EC50: ≤ 7.5 µM
B9: SEQ ID NO: 152 (peptide)
peptide: H-MWILISYWG-OH

Wnt Reporter EC50: > 7.5 µM and ≤ 15 µM
B11: SEQ ID NO: 187 (peptide)
peptide: KWFLISAWE
HELM: PEPTIDE1{[ac].K.W.F.L.I.S.A.W.E}$PEPTIDE1,PEPTIDE1,2:R3-10:R3$$$V2.0
SMILES: CC[C@H](C)[C@@H]1NC(=O)[C@H](CC(C)C)NC(=O)[C@H](Cc2ccccc2)NC(=O)[C@H](Cc2c[nH]c3ccccc23)NC(=O)[C@@H](NC(C)=O)CCCCNC(=O)CC[C@@H](C(=O)O)NC(=O)[C@H](Cc2c[nH]c3ccccc23)NC(=O)[C@H](C)NC(=O)[C@H](CO)NC1=O

Wnt Reporter EC50: ≤ 7.5 µM
B12: SEQ ID NO: 172 (peptide)
peptide: KWFLICFWD
HELM: PEPTIDE1{K.W.F.L.I.C.F.W.D}$PEPTIDE1,PEPTIDE1,1:R3-9:R3$$$V2.0
SMILES: CC[C@H](C)[C@@H]1NC(=O)[C@H](CC(C)C)NC(=O)[C@H](Cc2ccccc2)NC(=O)[C@H](Cc2c[nH]c3ccccc23)NC(=O)[C@@H](N)CCCCNC(=O)C[C@@H](C(=O)O)NC(=O)[C@H](Cc2c[nH]c3ccccc23)NC(=O)[C@H](Cc2ccccc2)NC(=O)[C@H](CS)NC1=O

Wnt Reporter EC50: > 7.5 µM and ≤ 15 µM
B13: SEQ ID NO: 145 (peptide)
peptide: H-MWFLICHWG-OH

Wnt Reporter EC50: ≤ 7.5 µM
B14: SEQ ID NO: 179 (peptide)
peptide: KWFLICFWE
HELM: PEPTIDE1{K.W.F.L.I.C.F.W.E}$PEPTIDE1,PEPTIDE1,1:R3-9:R3$$$V2.0
SMILES: CC[C@H](C)[C@@H]1NC(=O)[C@H](CC(C)C)NC(=O)[C@H](Cc2ccccc2)NC(=O)[C@H](Cc2c[nH]c3ccccc23)NC(=O)[C@@H](N)CCCCNC(=O)CC[C@@H](C(=O)O)NC(=O)[C@H](Cc2c[nH]c3ccccc23)NC(=O)[C@H](Cc2ccccc2)NC(=O)[C@H](CS)NC1=O

Wnt Reporter EC50: > 30 µM
B15: SEQ ID NO: 147 (peptide)
peptide: MWFLICFWD
HELM: PEPTIDE1{[O=C(CCCN[*:1])[*:2]].M.W.F.L.I.C.F.W.D}$PEPTIDE1,PEPTIDE1,1:R1-10:R3$$$V2.0
SMILES: CC[C@H](C)[C@@H]1NC(=O)[C@H](CC(C)C)NC(=O)[C@H](Cc2ccccc2)NC(=O)[C@H](Cc2c[nH]c3ccccc23)NC(=O)[C@H](CCSC)NC(=O)CCCNC(=O)C[C@@H](C(=O)O)NC(=O)[C@H](Cc2c[nH]c3ccccc23)NC(=O)[C@H](Cc2ccccc2)NC(=O)[C@H](CS)NC1=O

Wnt Reporter EC50: ≤ 7.5 µM
B17: SEQ ID NO: 169 (peptide)
peptide: KWFLICAWD
HELM: PEPTIDE1{[ac].K.W.F.L.I.C.A.W.D}$PEPTIDE1,PEPTIDE1,2:R3-10:R3$$$V2.0
SMILES: CC[C@H](C)[C@@H]1NC(=O)[C@H](CC(C)C)NC(=O)[C@H](Cc2ccccc2)NC(=O)[C@H](Cc2c[nH]c3ccccc23)NC(=O)[C@@H](NC(C)=O)CCCCNC(=O)C[C@@H](C(=O)O)NC(=O)[C@H](Cc2c[nH]c3ccccc23)NC(=O)[C@H](C)NC(=O)[C@H](CS)NC1=O

Wnt Reporter EC50: ≤ 7.5 µM
B18: SEQ ID NO: 163 (peptide)
peptide: H-MWFLIHFWG-OH

Wnt Reporter EC50: ≤ 7.5 µM
B24: SEQ ID NO: 168 (peptide)
peptide: KWFLICAWD
HELM: PEPTIDE1{K.W.F.L.I.C.A.W.D}$PEPTIDE1,PEPTIDE1,1:R3-9:R3$$$V2.0
SMILES: CC[C@H](C)[C@@H]1NC(=O)[C@H](CC(C)C)NC(=O)[C@H](Cc2ccccc2)NC(=O)[C@H](Cc2c[nH]c3ccccc23)NC(=O)[C@@H](N)CCCCNC(=O)C[C@@H](C(=O)O)NC(=O)[C@H](Cc2c[nH]c3ccccc23)NC(=O)[C@H](C)NC(=O)[C@H](CS)NC1=O

Wnt Reporter EC50: ≤ 7.5 µM
B26: SEQ ID NO: 183 (peptide)
peptide: KWFLISAWE
HELM: PEPTIDE1{K.W.F.L.I.S.A.W.E}$PEPTIDE1,PEPTIDE1,1:R3-9:R3$$$V2.0
SMILES: CC[C@H](C)[C@@H]1NC(=O)[C@H](CC(C)C)NC(=O)[C@H](Cc2ccccc2)NC(=O)[C@H](Cc2c[nH]c3ccccc23)NC(=O)[C@@H](N)CCCCNC(=O)CC[C@@H](C(=O)O)NC(=O)[C@H](Cc2c[nH]c3ccccc23)NC(=O)[C@H](C)NC(=O)[C@H](CO)NC1=O

Wnt Reporter EC50: ≤ 7.5 µM
B27: SEQ ID NO: 200 (peptide)
peptide: KWFLIAFWE
HELM: PEPTIDE1{[ac].K.W.F.L.I.A.F.W.E}$PEPTIDE1,PEPTIDE1,2:R3-10:R3$$$V2.0
SMILES: CC[C@H](C)[C@@H]1NC(=O)[C@H](CC(C)C)NC(=O)[C@H](Cc2ccccc2)NC(=O)[C@H](Cc2c[nH]c3ccccc23)NC(=O)[C@@H](NC(C)=O)CCCCNC(=O)CC[C@@H](C(=O)O)NC(=O)[C@H](Cc2c[nH]c3ccccc23)NC(=O)[C@H](Cc2ccccc2)NC(=O)[C@H](C)NC1=O

Source: patent publication US20260098059A1 (ENDOMET BIOSCIENCES, published 2026)
